From article PMC11568203
Several values for one entry are separate records, joined by “and”; a condition that tells them apart may be missing. Equal entries are not always repeated.

How the values were obtained:
[1] = target: KLHDC10(41-C)-EloB/C (UniProt Q6PID8); test: SPR; Biacore T200; 10xHis-KLHDC10-EloB/C captured on a Ni-NTA chip; UB variants as analytes, 2 uM to 0.125 uM; 25 mM Tris, 200 mM NaCl, 0.1% Tween20, pH 7.4, 20 °C; multi-cycle kinetics, 1:1 binding model; two replicates
[2] = target: KLHDC10^41-C-EloB/C with a 10X Histidine tag on EloC (SPR) (UniProt Q6PID8); test: SPR; Biacore T200; His-tagged KLHDC10 complex captured on Ni-NTA chip (about 300 RU); ubiquitin variants as analytes 2 uM to 0.125 uM, multi-cycle kinetics; 25 mM Tris, 200 mM NaCl, 0.1% Tween20, pH 7.4; 20 °C; 1:1 binding model

Kd [1]: 319 nM and 393 nM | Kd [2]: 300 nM
Substance: ubiquitin (from UniProt P0CG48 1-76) (natural protein)
